# B1: MBS1 probe (SmCYP71D375 promoter) (dsDNA)
# DNA 1: GCTTCAGTTGAGCTGCTTCAGTTGAGCTGCTTCAGTTGAGCT
# DNA 2: AGCTCAACTGAAGCAGCTCAACTGAAGCAGCTCAACTGAAGC
# B2: MBS2 probe (SmCYP71D375 promoter) (dsDNA)
# DNA 1: AGATCCGTTGGAGAAGATCCGTTGGAGAAGATCCGTTGGAGA
# DNA 2: TCTCCAACGGATCTTCTCCAACGGATCTTCTCCAACGGATCT
# Target: SmMYB53 (Salvia miltiorrhiza, UniProt A0A059PSP0 1-372)
# Assay: EMSA; SmMYB53 alone; LightShift Chemiluminescent EMSA kit (Beyotime) binding buffer, >30 min at 4 C; unlabeled competitor 10-fold; salt and pH not stated
# Conditions: protein: recombinant; tags: His (pCold); label: biotin; blunt
# SmMYB53, sequence (A0A059PSP0 entry or part of it): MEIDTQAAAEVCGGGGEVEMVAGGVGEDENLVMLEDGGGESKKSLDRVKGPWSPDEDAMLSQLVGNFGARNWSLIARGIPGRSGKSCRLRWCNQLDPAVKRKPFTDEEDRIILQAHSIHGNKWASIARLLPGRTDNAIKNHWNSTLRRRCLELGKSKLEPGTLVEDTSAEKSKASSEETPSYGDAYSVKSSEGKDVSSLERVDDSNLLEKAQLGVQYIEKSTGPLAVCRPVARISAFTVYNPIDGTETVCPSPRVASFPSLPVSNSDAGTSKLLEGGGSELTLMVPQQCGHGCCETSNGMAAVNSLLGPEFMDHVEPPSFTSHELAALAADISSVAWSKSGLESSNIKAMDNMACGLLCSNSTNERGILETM
row,Binder,binding result
1,B1,binds
2,B2,binds

# Source: PMC12017799, “Molecular mechanism of SmMYB53 activates the expression of SmCYP71D375, thereby modulating tanshinone accumulation in Salvia miltiorrhiza”
